Measured values reported in publication PMC10092650.
Like-named read-outs stand apart in the source and are kept apart here.

Legend:
[1] = target: doubly stabilized microtubules (GMPCPP and paclitaxel) (UniProt Q6B856); test: co-sedimentation
[2] = target: X-rhodamine-labeled dynamic microtubules nucleated from GMPCPP-stabilized Cy5 MT seeds (UniProt Q6B856); test: dynamic MT seed assay
[3] = target: doubly stabilized microtubules (GMPCPP and paclitaxel) (UniProt Q6B856); test: co-sedimentation; remark: listed apart in the source
[4] = target: GMPCPP-stabilized HyLite 647/biotin-labeled microtubules (bovine) (UniProt Q6B856); test: single-molecule TIRF microscopy
[5] = target: GMPCPP-stabilized HyLite 647/biotin-labeled microtubules (bovine) (UniProt Q6B856); test: single-molecule TIRF microscopy; remark: listed apart in the source

YPet-Kif18B(605-828)-NLS1/2 (from UniProt Q86Y91-6 605-828) (domain or fragment)
fold increase in the Kd for MT binding relative to YPet-Kif18B(605-828) [1]: 2 fold

YPet-Kif18B(605-828)-His6 (from UniProt Q86Y91-6 605-828) (domain or fragment)
fold increase in the Kd for MTs with importin α/β against without [1]: 9 fold

GFP-Kif18B (full-length human Kif18B N-terminally tagged with EGFP) (from UniProt Q86Y91-6 1-833) (natural protein)
percent of two-sided MTs with GFP-Kif18B binding events, with importin α/β [2]: 73%
percent of two-sided MTs with bound GFP-Kif18B [2]: 46%
percent pelleted with MTs [1]: > 90%
percent pelleted with MTs [3]: 79%
dwell time at MT plus ends [4]: 5.39 s
mean dwell time on the MT lattice [4]: 2.3 s
dwell time at MT plus ends [5]: 5.56 s
mean dwell time on the MT lattice [5]: 1.77 s
